Data as given in patent publication US20140087995A1 (published 2014).
Numbered stars: 1 amine (or outer) side, 2 acyl side, 3 side chain; on linkers, the order of the positions; unused ones are H or OH. Bridge positions count the residues as written; N and C are the ends. * marks the point of attachment. C20 diacid = O=C(O)CCCCCCCCCCCCCCCCCCC(=O)*; γGlu = O=C(O)[C@H](CCC(=O)[*:2])N[*:1]

T1: human calcitonin receptor (human, UniProt P30988 25-474)
T1 construct: whole, on cells; also called hCTR; hCT
T1 sequence (looked up): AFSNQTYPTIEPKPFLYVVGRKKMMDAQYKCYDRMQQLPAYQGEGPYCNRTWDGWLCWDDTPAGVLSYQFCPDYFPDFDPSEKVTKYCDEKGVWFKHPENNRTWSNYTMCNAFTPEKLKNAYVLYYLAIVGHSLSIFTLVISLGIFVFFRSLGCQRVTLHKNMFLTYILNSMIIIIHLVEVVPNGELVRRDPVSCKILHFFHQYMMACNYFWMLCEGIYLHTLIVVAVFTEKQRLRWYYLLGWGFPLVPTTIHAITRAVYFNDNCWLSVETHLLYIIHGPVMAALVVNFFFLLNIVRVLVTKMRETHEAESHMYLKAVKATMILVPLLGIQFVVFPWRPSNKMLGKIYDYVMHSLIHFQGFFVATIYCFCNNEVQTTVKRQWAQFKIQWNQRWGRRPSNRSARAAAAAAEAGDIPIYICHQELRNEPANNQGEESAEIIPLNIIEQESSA

B1: N^α1-[(4S)-4-carboxy-4-(19-carboxynonadecanoylamino)butanoyl]-[Glu14,Arg17,Pro21,Pro25,Pro28,Pro29]-h-amylin (peptide)
peptide: {C20 diacid-γGlu}-KCNTATCATQRLAEFLRHSSPNFGPILPPTNVGSNTY-NH2
modifications: disulfide 2-7
SMILES: CC[C@H](C)[C@H](NC(=O)[C@@H]1CCCN1C(=O)CNC(=O)[C@H](Cc1ccccc1)NC(=O)[C@H](CC(N)=O)NC(=O)[C@@H]1CCCN1C(=O)[C@H](CO)NC(=O)[C@H](CO)NC(=O)[C@H](Cc1c[nH]cn1)NC(=O)[C@H](CCCNC(=N)N)NC(=O)[C@H](CC(C)C)NC(=O)[C@H](Cc1ccccc1)NC(=O)[C@H](CCC(=O)O)NC(=O)[C@H](C)NC(=O)[C@H](CC(C)C)NC(=O)[C@H](CCCNC(=N)N)NC(=O)[C@H](CCC(N)=O)NC(=O)[C@@H](NC(=O)[C@H](C)NC(=O)[C@@H]1CSSC[C@H](NC(=O)[C@H](CCCCN)NC(=O)CC[C@H](NC(=O)CCCCCCCCCCCCCCCCCCC(=O)O)C(=O)O)C(=O)N[C@@H](CC(N)=O)C(=O)N[C@@H]([C@@H](C)O)C(=O)N[C@@H](C)C(=O)N[C@@H]([C@@H](C)O)C(=O)N1)[C@@H](C)O)C(=O)N[C@@H](CC(C)C)C(=O)N1CCC[C@H]1C(=O)N1CCC[C@H]1C(=O)N[C@H](C(=O)N[C@@H](CC(N)=O)C(=O)N[C@H](C(=O)NCC(=O)N[C@@H](CO)C(=O)N[C@@H](CC(N)=O)C(=O)N[C@H](C(=O)N[C@@H](Cc1ccc(O)cc1)C(N)=O)[C@@H](C)O)C(C)C)[C@@H](C)O
notes: also called compound 6
B2: N^α1-[(4S)-4-carboxy-4-(19-carboxynonadecanoylamino)butanoyl]-[Glu14,Arg17,Pro21,Pro26,Pro37]-h-amylin (peptide)
peptide: {C20 diacid-γGlu}-KCNTATCATQRLAEFLRHSSPNFGAPLSSTNVGSNTP-NH2
modifications: disulfide 2-7
SMILES: CC(C)C[C@H](NC(=O)[C@H](CCCNC(=N)N)NC(=O)[C@H](CCC(N)=O)NC(=O)[C@@H](NC(=O)[C@H](C)NC(=O)[C@@H]1CSSC[C@H](NC(=O)[C@H](CCCCN)NC(=O)CC[C@H](NC(=O)CCCCCCCCCCCCCCCCCCC(=O)O)C(=O)O)C(=O)N[C@@H](CC(N)=O)C(=O)N[C@@H]([C@@H](C)O)C(=O)N[C@@H](C)C(=O)N[C@@H]([C@@H](C)O)C(=O)N1)[C@@H](C)O)C(=O)N[C@@H](C)C(=O)N[C@@H](CCC(=O)O)C(=O)N[C@@H](Cc1ccccc1)C(=O)N[C@@H](CC(C)C)C(=O)N[C@@H](CCCNC(=N)N)C(=O)N[C@@H](Cc1c[nH]cn1)C(=O)N[C@@H](CO)C(=O)N[C@@H](CO)C(=O)N1CCC[C@H]1C(=O)N[C@@H](CC(N)=O)C(=O)N[C@@H](Cc1ccccc1)C(=O)NCC(=O)N[C@@H](C)C(=O)N1CCC[C@H]1C(=O)N[C@@H](CC(C)C)C(=O)N[C@@H](CO)C(=O)N[C@@H](CO)C(=O)N[C@H](C(=O)N[C@@H](CC(N)=O)C(=O)N[C@H](C(=O)NCC(=O)N[C@@H](CO)C(=O)N[C@@H](CC(N)=O)C(=O)N[C@H](C(=O)N1CCC[C@H]1C(N)=O)[C@@H](C)O)C(C)C)[C@@H](C)O
notes: also called compound 5
B3: N^α1-[(4S)-4-carboxy-4-(19-carboxynonadecanoylamino)butanoyl]-[Glu14,Arg17,Pro21,Pro26]-h-amylin (peptide)
peptide: {C20 diacid-γGlu}-KCNTATCATQRLAEFLRHSSPNFGAPLSSTNVGSNTY-NH2
modifications: disulfide 2-7
SMILES: CC(C)C[C@H](NC(=O)[C@H](CCCNC(=N)N)NC(=O)[C@H](CCC(N)=O)NC(=O)[C@@H](NC(=O)[C@H](C)NC(=O)[C@@H]1CSSC[C@H](NC(=O)[C@H](CCCCN)NC(=O)CC[C@H](NC(=O)CCCCCCCCCCCCCCCCCCC(=O)O)C(=O)O)C(=O)N[C@@H](CC(N)=O)C(=O)N[C@@H]([C@@H](C)O)C(=O)N[C@@H](C)C(=O)N[C@@H]([C@@H](C)O)C(=O)N1)[C@@H](C)O)C(=O)N[C@@H](C)C(=O)N[C@@H](CCC(=O)O)C(=O)N[C@@H](Cc1ccccc1)C(=O)N[C@@H](CC(C)C)C(=O)N[C@@H](CCCNC(=N)N)C(=O)N[C@@H](Cc1c[nH]cn1)C(=O)N[C@@H](CO)C(=O)N[C@@H](CO)C(=O)N1CCC[C@H]1C(=O)N[C@@H](CC(N)=O)C(=O)N[C@@H](Cc1ccccc1)C(=O)NCC(=O)N[C@@H](C)C(=O)N1CCC[C@H]1C(=O)N[C@@H](CC(C)C)C(=O)N[C@@H](CO)C(=O)N[C@@H](CO)C(=O)N[C@H](C(=O)N[C@@H](CC(N)=O)C(=O)N[C@H](C(=O)NCC(=O)N[C@@H](CO)C(=O)N[C@@H](CC(N)=O)C(=O)N[C@H](C(=O)N[C@@H](Cc1ccc(O)cc1)C(N)=O)[C@@H](C)O)C(C)C)[C@@H](C)O
notes: also called compound 7
B4: N^α1-[(4S)-4-carboxy-4-(19-carboxynonadecanoylamino)butanoyl]-[Glu14,Arg17,Pro21,Pro27,Arg35]-h-amylin (peptide)
peptide: {C20 diacid-γGlu}-KCNTATCATQRLAEFLRHSSPNFGAIPSSTNVGSRTY-NH2
modifications: disulfide 2-7
SMILES: CC[C@H](C)[C@H](NC(=O)[C@H](C)NC(=O)CNC(=O)[C@H](Cc1ccccc1)NC(=O)[C@H](CC(N)=O)NC(=O)[C@@H]1CCCN1C(=O)[C@H](CO)NC(=O)[C@H](CO)NC(=O)[C@H](Cc1c[nH]cn1)NC(=O)[C@H](CCCNC(=N)N)NC(=O)[C@H](CC(C)C)NC(=O)[C@H](Cc1ccccc1)NC(=O)[C@H](CCC(=O)O)NC(=O)[C@H](C)NC(=O)[C@H](CC(C)C)NC(=O)[C@H](CCCNC(=N)N)NC(=O)[C@H](CCC(N)=O)NC(=O)[C@@H](NC(=O)[C@H](C)NC(=O)[C@@H]1CSSC[C@H](NC(=O)[C@H](CCCCN)NC(=O)CC[C@H](NC(=O)CCCCCCCCCCCCCCCCCCC(=O)O)C(=O)O)C(=O)N[C@@H](CC(N)=O)C(=O)N[C@@H]([C@@H](C)O)C(=O)N[C@@H](C)C(=O)N[C@@H]([C@@H](C)O)C(=O)N1)[C@@H](C)O)C(=O)N1CCC[C@H]1C(=O)N[C@@H](CO)C(=O)N[C@@H](CO)C(=O)N[C@H](C(=O)N[C@@H](CC(N)=O)C(=O)N[C@H](C(=O)NCC(=O)N[C@@H](CO)C(=O)N[C@@H](CCCNC(=N)N)C(=O)N[C@H](C(=O)N[C@@H](Cc1ccc(O)cc1)C(N)=O)[C@@H](C)O)C(C)C)[C@@H](C)O
notes: also called compound 16
B5: N^α1-[(4S)-4-carboxy-4-(19-carboxynonadecanoylamino)butanoyl]-[Glu14,Arg17,Pro21,Pro27,Asp35,Pro37]-h-amylin (peptide)
peptide: {C20 diacid-γGlu}-KCNTATCATQRLAEFLRHSSPNFGAIPSSTNVGSDTP-NH2
modifications: disulfide 2-7
SMILES: CC[C@H](C)[C@H](NC(=O)[C@H](C)NC(=O)CNC(=O)[C@H](Cc1ccccc1)NC(=O)[C@H](CC(N)=O)NC(=O)[C@@H]1CCCN1C(=O)[C@H](CO)NC(=O)[C@H](CO)NC(=O)[C@H](Cc1c[nH]cn1)NC(=O)[C@H](CCCNC(=N)N)NC(=O)[C@H](CC(C)C)NC(=O)[C@H](Cc1ccccc1)NC(=O)[C@H](CCC(=O)O)NC(=O)[C@H](C)NC(=O)[C@H](CC(C)C)NC(=O)[C@H](CCCNC(=N)N)NC(=O)[C@H](CCC(N)=O)NC(=O)[C@@H](NC(=O)[C@H](C)NC(=O)[C@@H]1CSSC[C@H](NC(=O)[C@H](CCCCN)NC(=O)CC[C@H](NC(=O)CCCCCCCCCCCCCCCCCCC(=O)O)C(=O)O)C(=O)N[C@@H](CC(N)=O)C(=O)N[C@@H]([C@@H](C)O)C(=O)N[C@@H](C)C(=O)N[C@@H]([C@@H](C)O)C(=O)N1)[C@@H](C)O)C(=O)N1CCC[C@H]1C(=O)N[C@@H](CO)C(=O)N[C@@H](CO)C(=O)N[C@H](C(=O)N[C@@H](CC(N)=O)C(=O)N[C@H](C(=O)NCC(=O)N[C@@H](CO)C(=O)N[C@@H](CC(=O)O)C(=O)N[C@H](C(=O)N1CCC[C@H]1C(N)=O)[C@@H](C)O)C(C)C)[C@@H](C)O
notes: also called compound 11

target: T1, human calcitonin receptor; assay: ratio of IC50 at hCTR to IC50 at the human amylin receptor (reference)
Method: The resulting pellet was resuspended, homogenized and centrifuged (20.000 rpm, 15 min) in a buffer containing 20 mM Na-HEPES and 0.1 mM EDTA (pH 7.4, buffer 2). The resulting pellet was resuspended in buffer 2 and protein concentration was measured (BCA protein Assay, Pierce). The homogenate was kept cold during the whole procedure. The membranes were kept at −80° C. until use. The assay was performed in a 384 well Optiplate (PerkinElmer) in a total volume of 40 ul. Membranes were mixed with SPA beads. Final concentration of membranes 35 ng/μL final and SPA beads was 0.05 mg/well. Test-compounds were dissolved in DMSO and further diluted in assay buffer (50 mM Hepes, pH 7.4, 1 mM CaCl2, 5 mM MgCl₂, 0.1% OA and 0.02% Tween20). […] The final mixture was incubated with shaking at 400 rpm for 120 min at 25° C. prior to centrifugation (1500 rpm, 10 min). Samples were analyzed on TopCounter™ (Packard). The IC₅₀ was calculated using (one site binding competition analysis) GraphPad Prism5 as a measure of receptor affinity.
Membranes were prepared in the following way; the cells were rinsed with PBS and incubated with Versene for approximately 5 min before harvesting. The cells were flushed with PBS and the cell-suspension was centrifuged for 5 min at 1000 rpm. Cells were homogenized (Ultrathurrax) in a buffer containing 20 mM Na-HEPES and 10 mM EDTA (pH 7.4) and centrifuged at 20.000 rpm for 15 min. The resulting pellet was resuspended, homogenized and centrifuged (20.000 rpm, 15 min) in a buffer containing 20 mM Na-HEPES and 0.1 mM EDTA (pH 7.4, buffer 2). The resulting pellet was resuspended in buffer 2 and protein concentration was measured (BCA protein Assay, Pierce). The homogenate was kept cold during the whole procedure. The membranes were kept at −80° C. until use. Assay was performed in a 384 well Optiplate (PerkinElmer) in a total volume of 40 ul. Membranes were mixed with SPA beads.

| Ratio hCT/hAmylin binding | Binder |
| --- | --- |
| 20 | B1 |
| 1.4 | B2 |
| 16.5 | B3 |
| 19.1 | B4 |
| 1 | B5 |

target: T1, human calcitonin receptor; assay: SPA competition binding, membranes with human calcitonin receptor, displacement of 125I-calcitonin (Assay VII)
Method: Membranes were prepared in the following way; the cells were rinsed with PBS and incubated with Versene for approximately 5 min before harvesting. The cells were flushed with PBS and the cell-suspension was centrifuged for 5 min at 1000 rpm. Cells were homogenized (Ultrathurrax) in a buffer containing 20 mM Na-HEPES and 10 mM EDTA (pH 7.4) and centrifuged at 20.000 rpm for 15 min. The resulting pellet was resuspended, homogenized and centrifuged (20.000 rpm, 15 min) in a buffer containing 20 mM Na-HEPES and 0.1 mM EDTA (pH 7.4, buffer 2). The resulting pellet was resuspended in buffer 2 and protein concentration was measured (BCA protein Assay, Pierce). The homogenate was kept cold during the whole procedure. The membranes were kept at −80° C. until use. Assay was performed in a 384 well Optiplate (PerkinElmer) in a total volume of 40 ul. Membranes were mixed with SPA beads. Final concentration of membranes 35 ng/μL final and Final concentration of SPA beads was 0.05 mg/well. Test-compounds were dissolved in DMSO and further diluted in assay buffer (50 mM Hepes, pH 7.4, 1 mM CaCl2, 5 mM MgCl₂, 0.1% OA and 0.02% Tween20). […] The final mixture was incubated for 120 min with shaking at 400 rpm at 25° C. prior to centrifugation (1500 rpm, 10 min). Samples were analyzed on TopCounter™ (Packard). The […] was calculated using (one site binding competition analysis) GraphPad Prism5 as a measure of receptor affinity.

| IC50 [µM] | Binder |
| --- | --- |
| 0.0199 | B1 |
| 0.000537 | B2 |
| 0.0111 | B3 |
| 0.0171 | B4 |
| 0.000101 | B5 |
